Test results reported in patent US20240317847A1 (Bayer, published 2024).

T1: human IL-11 (human, UniProt P20809 22-199)
T1 sequence: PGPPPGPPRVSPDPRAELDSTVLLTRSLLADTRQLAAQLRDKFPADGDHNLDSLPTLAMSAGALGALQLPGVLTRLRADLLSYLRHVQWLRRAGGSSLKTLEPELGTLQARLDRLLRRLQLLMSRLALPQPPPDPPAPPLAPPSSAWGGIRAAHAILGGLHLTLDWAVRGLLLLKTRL

T2: murine IL-11 (mouse, UniProt P47873 22-199)
T2 sequence: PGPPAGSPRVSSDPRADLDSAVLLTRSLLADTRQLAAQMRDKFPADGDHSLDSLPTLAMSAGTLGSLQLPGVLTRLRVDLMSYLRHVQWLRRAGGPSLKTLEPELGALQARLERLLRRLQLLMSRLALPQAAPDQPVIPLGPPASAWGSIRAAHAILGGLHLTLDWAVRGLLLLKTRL

T3: rat IL-11 (rat, UniProt Q99MF5 22-199)
T3 construct: Invigate, e.g. lot #C301019-19; also called rIL11
T3 sequence: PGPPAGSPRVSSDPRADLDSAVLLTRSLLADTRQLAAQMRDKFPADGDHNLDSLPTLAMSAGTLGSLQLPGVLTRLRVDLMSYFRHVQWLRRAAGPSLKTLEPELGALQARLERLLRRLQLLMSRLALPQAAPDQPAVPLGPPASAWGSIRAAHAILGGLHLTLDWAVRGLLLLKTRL

T4: cynomolgus IL-11 (cynomolgus, UniProt P20808 22-199)
T4 construct: Invigate, lot #C290621-19; also called cIL11; cynoL-11
T4 sequence: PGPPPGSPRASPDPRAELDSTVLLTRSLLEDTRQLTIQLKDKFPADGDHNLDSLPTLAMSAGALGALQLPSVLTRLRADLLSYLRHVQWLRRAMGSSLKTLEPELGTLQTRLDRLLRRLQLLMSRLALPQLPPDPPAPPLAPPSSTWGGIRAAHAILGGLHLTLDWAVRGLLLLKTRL

B1: TPP-29391 (antibody, human IgG1, V domains shown)
VH: EVQLLESGGGLVQPGGSLRLSCAASGFTFSSYGMHWVRQAPGKGLEWVAVISYDGSYKYYADSVKGRFTISRDNSKNTLYLQMNSLRAEDTAVYYCAAGVPDYWGQGTLVTVSS
VL: QSVLTQPPSASGTPGQRVTISCSGSSSNIGSDYDVHWYQQLPGTAPKLLIYSNNERPSGVPDRFSGSKSGTSASLAISGLRSEDEADYYCAAWDSSLYGPVFGGGTKLTVL
B2: TPP-29383 (antibody, human IgG1, V domains shown)
VH: EVQLLESGGGLVQPGGSLRLSCAASGFTFSSYGMHWVRQAPGKGLEWVAVISYDGSYKYYADSVKGRFTISRDNSKNTLYLQMNSLRAEDTAVYYCAAGVPDYWGQGTLVTVSS
VL: QSVLTQPPSASGTPGQRVTISCSGSSSNIGSDLDVHWYQQLPGTAPKLLIYSNEERPSGVPDRFSGSKSGTSASLAISGLRSEDEADYYCAAWDPSLYGPVFGGGTKLTVL
B3: TPP-29381 (antibody, human IgG1, V domains shown)
VH: EVQLLESGGGLVQPGGSLRLSCAASGFTFSSYGMHWVRQAPGKGLEWVAVISYDGSYKYYADSVKGRFTISRDNSKNTLYLQMNSLRAEDTAVYYCAAGVPDYWGQGTLVTVSS
VL: QSVLTQPPSASGTPGQRVTISCSGSSSNIGSDYDVHWYQQLPGTAPKLLIYSNNERPSGVPDRFSGSKSGTSASLAISGLRSEDEADYYCSAWDSSLSGPVFGGGTKLTVL
B4: TPP-29384 (antibody, human IgG1, V domains shown)
VH: EVQLLESGGGLVQPGGSLRLSCAASGFTFSSYGMHWVRQAPGKGLEWVAVISYDGSYKYYADSVKGRFTISRDNSKNTLYLQMNSLRAEDTAVYYCAAGVPDYWGQGTLVTVSS
VL: QSVLTQPPSASGTPGQRVTISCSGSSSNIGSGYDVHWYQQLPGTAPKLLIYSNEERPSGVPDRFSGSKSGTSASLAISGLRSEDEADYYCAAWDPSLSGPVFGGGTKLTVL
B5: TPP-29389 (antibody, human IgG1, V domains shown)
VH: EVQLLESGGGLVQPGGSLRLSCAASGFTFSSYGMHWVRQAPGKGLEWVAVISYDGSYKYYADSVKGRFTISRDNSKNTLYLQMNSLRAEDTAVYYCAAGVPDYWGQGTLVTVSS
VL: QSVLTQPPSASGTPGQRVTISCSGSSSNIGSYYDVHWYQQLPGTAPKLLIYSNEERPSGVPDRFSGSKSGTSASLAISGLRSEDEADYYCAAWDPSLYGPVFGGGTKLTVL
B6: TPP-29382 (antibody, human IgG1, V domains shown)
VH: EVQLLESGGGLVQPGGSLRLSCAASGFTFSSYGMHWVRQAPGKGLEWVAVISYDGSYKYYADSVKGRFTISRDNSKNTLYLQMNSLRAEDTAVYYCAAGVPDYWGQGTLVTVSS
VL: QSVLTQPPSASGTPGQRVTISCSGSSSNIGSDLDVHWYQQLPGTAPKLLIYSNNERPSGVPDRFSGSKSGTSASLAISGLRSEDEADYYCAAWDFSLYGPVFGGGTKLTVL

Legend:
[1] = target: T1, human IL-11; test: cell-based or functional assay
[2] = target: T2, murine IL-11; test: cell-based or functional assay
[3] = target: T3, rat IL-11; test: SPR, antibody captured, IL-11 as analyte
[4] = target: T1, human IL-11; test: SPR, antibody captured, IL-11 as analyte
[5] = target: T2, murine IL-11; test: SPR, antibody captured, IL-11 as analyte
[6] = target: T4, cynomolgus IL-11; test: SPR, antibody captured, IL-11 as analyte

Binder	RGA Efficacy (%) [1] [%]	RGA IC50 [1] [nM]	RGA Efficacy (%) [2] [%]	Kd [3] [nM]	Kd [4] [nM]	Kd [5] [nM]	Kd [6] [nM]	RGA IC50 [2] [nM]
B1	84	0.54	96.9	0.071	0.36	0.17	0.69	–
B2	86	1.6	94.2	0.31	1.1	0.62	1.3	0.57
B3	75.3	0.48	94.8	0.3	0.62	0.57	0.43	0.45
B4	81.9	2.8	97.2	0.18	0.98	0.3	0.86	0.33
B5	87.3	0.84	97.4	0.083	0.23	0.12	0.91	0.29
B6	81.4	0.64	87.5	0.2	0.44	0.56	0.46	0.26
